This note sets out measurements from article PMC11695723, “MCM2-7 ring closure involves the Mcm5 C-terminus and triggers Mcm4 ATP hydrolysis” (Nature Communications, 2025).

Conditions in all cases: both partners purified
Experiment [1] deals with T1, Mcm5 (S. cerevisiae, UniProt P29496 1-775).
T1 construct: Mcm5, S. cerevisiae; subunit of the MCM2-7 hexamer; source: S. cerevisiae, galactose-induced, purified as a subunit of MCM2-7 (anti-HA beads, HA peptide, gel filtration)
T1 sequence: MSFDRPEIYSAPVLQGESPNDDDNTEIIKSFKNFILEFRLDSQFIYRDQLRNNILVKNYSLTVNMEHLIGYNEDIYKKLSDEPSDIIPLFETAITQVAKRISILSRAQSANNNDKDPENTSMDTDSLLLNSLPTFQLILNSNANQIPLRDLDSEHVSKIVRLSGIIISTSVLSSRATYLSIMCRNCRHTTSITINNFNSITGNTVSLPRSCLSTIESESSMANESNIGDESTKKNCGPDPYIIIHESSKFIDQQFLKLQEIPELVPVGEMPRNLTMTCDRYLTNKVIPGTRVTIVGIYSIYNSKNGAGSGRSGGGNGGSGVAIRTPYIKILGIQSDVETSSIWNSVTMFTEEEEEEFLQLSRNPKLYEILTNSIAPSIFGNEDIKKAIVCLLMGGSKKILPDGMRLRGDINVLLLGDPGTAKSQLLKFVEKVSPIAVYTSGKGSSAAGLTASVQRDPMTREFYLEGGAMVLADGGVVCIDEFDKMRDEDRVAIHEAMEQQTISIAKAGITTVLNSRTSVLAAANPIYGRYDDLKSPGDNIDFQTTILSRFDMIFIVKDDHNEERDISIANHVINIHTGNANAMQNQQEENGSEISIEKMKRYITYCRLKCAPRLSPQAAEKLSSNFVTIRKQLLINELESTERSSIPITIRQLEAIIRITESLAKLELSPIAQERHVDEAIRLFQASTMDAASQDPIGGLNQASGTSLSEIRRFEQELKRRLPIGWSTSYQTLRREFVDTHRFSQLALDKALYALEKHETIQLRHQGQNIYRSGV
Briefly: cryo-EM structure; closed-gate OCCM (ORC-Cdc6-Cdt1-MCM2-7) on ARS1 DNA with ATPγS; focused 3D classification of the particles of ref. 13; about 10% of the particles; 6.1 Å.

Experiment [2] addresses T2, Mcm4 (S. cerevisiae, UniProt P30665 1-933).
T2 construct: Mcm4, S. cerevisiae; subunit of the MCM2-7 hexamer; source: S. cerevisiae, galactose-induced, purified as a subunit of MCM2-7 (anti-HA beads, HA peptide, gel filtration)
T2 sequence: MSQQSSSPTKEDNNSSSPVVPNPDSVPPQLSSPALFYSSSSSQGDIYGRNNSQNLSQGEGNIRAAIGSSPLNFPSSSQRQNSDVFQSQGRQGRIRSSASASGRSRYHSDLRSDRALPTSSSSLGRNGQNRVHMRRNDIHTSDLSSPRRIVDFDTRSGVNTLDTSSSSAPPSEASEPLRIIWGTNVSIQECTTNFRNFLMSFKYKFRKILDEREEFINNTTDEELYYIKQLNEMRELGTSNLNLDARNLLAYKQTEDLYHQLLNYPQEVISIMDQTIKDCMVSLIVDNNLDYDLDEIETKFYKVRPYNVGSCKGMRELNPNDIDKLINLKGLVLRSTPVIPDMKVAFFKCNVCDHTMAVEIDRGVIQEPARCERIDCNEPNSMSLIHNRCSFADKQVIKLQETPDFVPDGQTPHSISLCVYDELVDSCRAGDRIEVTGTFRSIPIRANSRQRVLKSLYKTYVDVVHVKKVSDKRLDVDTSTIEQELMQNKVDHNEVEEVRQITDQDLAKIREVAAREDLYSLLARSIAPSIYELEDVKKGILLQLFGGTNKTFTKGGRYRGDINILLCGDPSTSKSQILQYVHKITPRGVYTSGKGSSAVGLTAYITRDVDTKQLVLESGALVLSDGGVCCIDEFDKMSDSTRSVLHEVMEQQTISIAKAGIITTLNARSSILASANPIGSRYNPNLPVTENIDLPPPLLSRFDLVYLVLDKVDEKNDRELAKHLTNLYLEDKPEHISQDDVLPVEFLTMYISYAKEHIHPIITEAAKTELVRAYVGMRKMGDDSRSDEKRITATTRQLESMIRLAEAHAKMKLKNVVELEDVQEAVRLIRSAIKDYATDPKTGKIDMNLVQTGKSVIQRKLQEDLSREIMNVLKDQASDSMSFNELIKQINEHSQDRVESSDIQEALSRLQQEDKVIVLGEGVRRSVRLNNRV
The description is as above.

The target in experiment [3] is T3, Mcm3 (HA-tagged) (S. cerevisiae, UniProt P24279 1-971).
T3 construct: Mcm3, S. cerevisiae; subunit of the MCM2-7 hexamer; bait of the anti-HA bead pulldowns; source: S. cerevisiae, galactose-induced, purified as a subunit of MCM2-7 (anti-HA beads, HA peptide, gel filtration)
Briefly: pull-down; 150 nM MCM2-7 alone in pre-RC buffer, bound to anti-HA magnetic beads by the HA-tag on Mcm3, low salt wash (pre-RC buffer), HA peptide elution, silver stain.

For experiment [4], the target named is T4, Origin Recognition Complex (ORC) (UniProt P54784 1-914; P32833 1-620; P54790 1-616; P54791 1-529; P50874 1-479; P38826 …).
T4 construct: Orc1; Orc2; Orc3; Orc4; Orc5; Orc6; in all assays ORC stood with ARS1 DNA; source: Hi-5 cells, baculovirus (Orc1,6; Orc2,5; Orc3,4), purified (ammonium sulphate, SP Sepharose, Mono Q, Superdex 200); copies: + + + + +
Briefly: cryo-EM structure; closed-gate OCCM (ORC-Cdc6-Cdt1-MCM2-7) on ARS1 DNA with ATPγS; focused 3D classification of the particles of ref. 13; about 10% of the particles; 6.1 Å.

The target in experiment [5] is T5, MCM2-7-ΔC5 (S. cerevisiae, UniProt P29469 1-868; P24279 1-971; P30665 1-933; P29496 1-692; P53091 1-1017; P38132 …).
T5 construct: Mcm2, S. cerevisiae; Mcm3, S. cerevisiae; Mcm4, S. cerevisiae; Mcm5, S. cerevisiae, deletion of residues 693-775 (C-terminal extension C5: linker and WHD); Mcm6, S. cerevisiae; Mcm7, S. cerevisiae; also called mcm5 (Δ693-775); copies: + + + + +
Briefly: pull-down; pre-RC pulldown: 150 nM ORC, 300 nM Cdc6, 150 nM Cdt1, 150 nM MCM2-7 and 200 nM 290 bp ARS1 DNA in solution, anti-HA beads (HA-Mcm3), low salt wash, HA peptide elution.

Experiment [6] addresses T6, MCM2-7 (wild type) (S. cerevisiae, UniProt P29469 1-868; P24279 1-971; P30665 1-933; P29496 1-775; P53091 1-1017; P38132 …).
T6 construct: Mcm2, S. cerevisiae; Mcm3, S. cerevisiae; Mcm4, S. cerevisiae; Mcm5, S. cerevisiae; Mcm6, S. cerevisiae; Mcm7, S. cerevisiae; hetero-hexamer; plasmids and strains are in Supplementary Data 1; also called WT MCM2-7; copies: + + + + +
Described as above.

T3 sequence (P24279 whole entry): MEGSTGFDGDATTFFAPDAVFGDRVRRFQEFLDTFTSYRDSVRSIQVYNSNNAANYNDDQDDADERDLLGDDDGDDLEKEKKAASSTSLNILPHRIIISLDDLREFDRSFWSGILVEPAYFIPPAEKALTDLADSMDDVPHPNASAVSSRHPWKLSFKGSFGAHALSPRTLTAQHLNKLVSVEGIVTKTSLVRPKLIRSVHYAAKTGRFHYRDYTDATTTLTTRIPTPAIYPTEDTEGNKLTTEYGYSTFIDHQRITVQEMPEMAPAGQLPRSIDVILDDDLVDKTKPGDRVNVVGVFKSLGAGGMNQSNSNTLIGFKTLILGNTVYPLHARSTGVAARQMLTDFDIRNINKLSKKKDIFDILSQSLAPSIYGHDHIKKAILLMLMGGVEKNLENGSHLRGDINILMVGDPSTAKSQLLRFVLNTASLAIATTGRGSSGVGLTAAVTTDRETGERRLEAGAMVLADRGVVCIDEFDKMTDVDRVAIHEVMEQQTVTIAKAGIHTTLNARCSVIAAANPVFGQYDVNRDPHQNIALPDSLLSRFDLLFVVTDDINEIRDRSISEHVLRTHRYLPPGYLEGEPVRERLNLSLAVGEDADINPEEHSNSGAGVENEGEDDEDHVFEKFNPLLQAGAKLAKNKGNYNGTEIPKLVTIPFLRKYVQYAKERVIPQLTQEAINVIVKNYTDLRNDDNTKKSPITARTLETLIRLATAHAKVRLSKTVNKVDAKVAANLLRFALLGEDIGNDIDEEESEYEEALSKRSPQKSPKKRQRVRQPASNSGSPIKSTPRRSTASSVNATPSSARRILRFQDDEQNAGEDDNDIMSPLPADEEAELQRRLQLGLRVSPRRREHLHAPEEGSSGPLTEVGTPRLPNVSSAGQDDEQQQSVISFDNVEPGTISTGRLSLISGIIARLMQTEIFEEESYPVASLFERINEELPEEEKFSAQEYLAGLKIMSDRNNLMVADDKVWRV
T5 sequence (P29469 whole entry, stated change not applied, chain 1 of 3, the tested form may be a part): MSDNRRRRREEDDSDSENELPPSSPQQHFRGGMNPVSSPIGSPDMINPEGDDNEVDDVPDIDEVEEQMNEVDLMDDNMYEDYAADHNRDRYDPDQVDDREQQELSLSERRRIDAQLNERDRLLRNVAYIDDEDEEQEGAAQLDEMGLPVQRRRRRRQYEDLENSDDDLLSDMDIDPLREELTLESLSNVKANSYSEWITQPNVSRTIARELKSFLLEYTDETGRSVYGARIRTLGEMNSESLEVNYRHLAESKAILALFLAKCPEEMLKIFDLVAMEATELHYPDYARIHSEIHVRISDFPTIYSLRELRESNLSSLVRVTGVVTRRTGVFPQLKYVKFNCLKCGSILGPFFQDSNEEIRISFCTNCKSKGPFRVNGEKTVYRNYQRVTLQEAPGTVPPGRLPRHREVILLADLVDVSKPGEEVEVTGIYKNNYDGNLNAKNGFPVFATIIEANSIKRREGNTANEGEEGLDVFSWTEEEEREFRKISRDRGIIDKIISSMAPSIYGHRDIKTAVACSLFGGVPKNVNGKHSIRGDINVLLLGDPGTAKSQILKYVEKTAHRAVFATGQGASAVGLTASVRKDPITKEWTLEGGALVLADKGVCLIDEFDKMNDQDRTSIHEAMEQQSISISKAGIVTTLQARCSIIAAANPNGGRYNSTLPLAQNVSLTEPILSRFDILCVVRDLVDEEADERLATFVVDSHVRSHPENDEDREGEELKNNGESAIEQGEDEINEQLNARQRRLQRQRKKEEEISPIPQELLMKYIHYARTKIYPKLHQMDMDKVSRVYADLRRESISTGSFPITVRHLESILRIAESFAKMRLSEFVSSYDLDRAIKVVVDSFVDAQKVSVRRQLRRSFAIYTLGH
T5 sequence (P24279 whole entry, stated change not applied, chain 2 of 3, the tested form may be a part): as the sequence (P24279 whole entry) above
T5 sequence (P53091 whole entry, stated change not applied, chain 5 of 3, the tested form may be a part): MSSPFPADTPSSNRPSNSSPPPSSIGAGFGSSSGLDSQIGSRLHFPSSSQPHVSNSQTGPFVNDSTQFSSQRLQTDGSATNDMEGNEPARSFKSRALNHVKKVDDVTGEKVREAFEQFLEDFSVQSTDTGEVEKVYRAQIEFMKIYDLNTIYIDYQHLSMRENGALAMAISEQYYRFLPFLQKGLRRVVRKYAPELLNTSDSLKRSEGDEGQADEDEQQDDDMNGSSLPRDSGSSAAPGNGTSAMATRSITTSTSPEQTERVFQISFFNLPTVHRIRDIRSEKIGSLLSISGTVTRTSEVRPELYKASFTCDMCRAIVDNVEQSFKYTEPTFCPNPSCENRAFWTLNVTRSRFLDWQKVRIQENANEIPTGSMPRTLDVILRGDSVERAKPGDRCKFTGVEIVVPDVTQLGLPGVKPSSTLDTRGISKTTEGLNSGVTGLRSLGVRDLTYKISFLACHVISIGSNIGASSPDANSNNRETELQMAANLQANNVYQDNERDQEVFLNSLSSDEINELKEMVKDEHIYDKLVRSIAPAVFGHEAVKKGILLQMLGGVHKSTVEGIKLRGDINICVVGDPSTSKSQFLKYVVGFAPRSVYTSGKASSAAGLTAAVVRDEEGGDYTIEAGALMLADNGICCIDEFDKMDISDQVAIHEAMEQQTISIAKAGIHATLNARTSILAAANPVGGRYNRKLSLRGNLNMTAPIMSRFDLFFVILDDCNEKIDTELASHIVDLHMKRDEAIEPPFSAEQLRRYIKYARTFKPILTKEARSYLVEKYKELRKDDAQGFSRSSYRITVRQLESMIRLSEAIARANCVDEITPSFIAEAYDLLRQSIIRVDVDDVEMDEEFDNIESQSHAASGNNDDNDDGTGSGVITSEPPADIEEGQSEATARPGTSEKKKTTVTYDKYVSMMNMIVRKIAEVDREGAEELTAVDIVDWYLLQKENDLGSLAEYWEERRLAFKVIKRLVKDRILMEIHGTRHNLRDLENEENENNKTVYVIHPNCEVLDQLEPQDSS
T6 sequence (P29469 whole entry, chain 1 of 3): as the sequence (P29469 whole entry, stated change not applied, chain 1 of 3, the tested form may be a part) above
T6 sequence (P24279 whole entry, chain 2 of 3): as the sequence (P24279 whole entry) above
T6 sequence (P53091 whole entry, chain 5 of 3): as the sequence (P53091 whole entry, stated change not applied, chain 5 of 3, the tested form may be a part) above

B1: Orc3 (natural protein)
chain: MSDLNQSKKMNVSEFADAQRSHYTVYPSLPQSNKNDKHIPFVKLLSGKESEVNVEKRWELYHQLHSHFHDQVDHIIDNIEADLKAEISDLLYSETTQKRRCFNTIFLLGSDSTTKIELKDESSRYNVLIELTPKESPNVRMMLRRSMYKLYSAADAEEHPTIKYEDINDEDGDFTEQNNDVSYDLSLVENFKRLFGKDLAMVFNFKDVDSINFNTLDNFIILLKSAFKYDHVKISLIFNINTNLSNIEKNLRQSTIRLLKRNYHKLDVSSNKGFKYGNQIFQSFLDTVDGKLNLSDRFVEFILSKMANNTNHNLQLLTKMLDYSLMSYFFQNAFSVFIDPVNVDFLNDDYLKILSRCPTFMFFVEGLIKQHAPADEILSLLTNKNRGLEEFFVEFLVRENPINGHAKFVARFLEEELNITNFNLIELYHNLLIGKLDSYLDRWSACKEYKDRLHFEPIDTIFQELFTLDNRSGLLTQSIFPSYKSNIEDNLLSWEQVLPSLDKENYDTLSGDLDKIMAPVLGQLFKLYREANMTINIYDFYIAFRETLPKEEILNFIRKDPSNTKLLELAETPDAFDKVALILFMQAIFAFENMGLIKFQSTKSYDLVEKCVWRGI
notes: Orc3; subunit of ORC; source: Hi-5 cells, baculovirus, purified as a subunit of ORC
As for B1, in experiment [1], the binding result is recorded as “binds”.

B2: Mcm7 (natural protein, S. cerevisiae)
chain: MSAALPSIQLPVDYNNLFNEITDFLVTFKQDTLSSDATRNENEDENLDAENIEQHLLEKGPKYMAMLQKVANRELNSVIIDLDDILQYQNEKFLQGTQADDLVSAIQQNANHFTELFCRAIDNNMPLPTKEIDYKDDVLDVILNQRRLRNERMLSDRTNEIRSENLMDTTMDPPSSMNDALREVVEDETELFPPNLTRRYFLYFKPLSQNCARRYRKKAISSKPLSVRQIKGDFLGQLITVRGIITRVSDVKPAVEVIAYTCDQCGYEVFQEVNSRTFTPLSECTSEECSQNQTKGQLFMSTRASKFSAFQECKIQELSQQVPVGHIPRSLNIHVNGTLVRSLSPGDIVDVTGIFLPAPYTGFKALKAGLLTETYLEAQFVRQHKKKFASFSLTSDVEERVMELITSGDVYNRLAKSIAPEIYGNLDVKKALLLLLVGGVDKRVGDGMKIRGDINVCLMGDPGVAKSQLLKAICKISPRGVYTTGKGSSGVGLTAAVMKDPVTDEMILEGGALVLADNGICCIDEFDKMDESDRTAIHEVMEQQTISISKAGINTTLNARTSILAAANPLYGRYNPRLSPLDNINLPAALLSRFDILFLMLDIPSRDDDEKLAEHVTYVHMHNKQPDLDFTPVEPSKMREYIAYAKTKRPVMSEAVNDYVVQAYIRLRQDSKREMDSKFSFGQATPRTLLGIIRLSQALAKLRLADMVDIDDVEEALRLVRVSKESLYQETNKSKEDESPTTKIFTIIKKMLQETGKNTLSYENIVKTVRLRGFTMLQLSNCIQEYSYLNVWHLINEGNTLKFVDDGTMDTDQEDSLVSTPKLAPQTTASANVSAQDSDIDLQDA
notes: Mcm7, S. cerevisiae; subunit of the MCM2-7 hexamer; source: S. cerevisiae, galactose-induced, purified as a subunit of MCM2-7 (anti-HA beads, HA peptide, gel filtration)
B2: the binding result in experiment [2] and in experiment [3] was “binds” throughout.

B3: Cdc6 (natural protein)
chain: MSAIPITPTKRIRRNLFDDAPATPPRPLKRKKLQFTDVTPESSPEKLQFGSQSIFLRTKALLQKSSELVNLNSSDGALPARTAEYEQVMNFLAKAISEHRSDSLYITGPPGTGKTAQLDMIIRQKFQSLPLSLSTPRSKDVLRHTNPNLQNLSWFELPDGRLESVAVTSINCISLGEPSSIFQKIFDSFQDLNGPTLQIKNMQHLQKFLEPYHKKTTFVVVLDEMDRLLHANTSETQSVRTILELFLLAKLPTVSFVLIGMANSLDMKDRFLSRLNLDRGLLPQTIVFQPYTAEQMYEIVIQKMSSLPTIIFQPMAIKFAAKKCAGNTGDLRKLFDVLRGSIEIYELEKRFLLSPTRGSLNSAQVPLTPTTSPVKKSYPEPQGKIGLNYIAKVFSKFVNNNSTRTRIAKLNIQQKLILCTIIQSLKLNSDATIDESFDHYIKAITKTDTLAPLQRNEFLEICTILETCGLVSIKKTKCKGKTKRFVDKIDVDLDMREFYDEMTKISILKPFLH
notes: Cdc6; also called WT Cdc6; source: E. coli BL21 codon-plus, purified (glutathione-agarose, PreScission Protease, hydroxyapatite)
As for B3, the binding result in experiment [4], in experiment [5] and in experiment [6] was “binds” each time.

B4: Mcm5 lacking its C-terminus (subunit of MCM2-7-ΔC5) (domain or fragment, S. cerevisiae, UniProt P29496 1-692, looked up)
chain: MSFDRPEIYSAPVLQGESPNDDDNTEIIKSFKNFILEFRLDSQFIYRDQLRNNILVKNYSLTVNMEHLIGYNEDIYKKLSDEPSDIIPLFETAITQVAKRISILSRAQSANNNDKDPENTSMDTDSLLLNSLPTFQLILNSNANQIPLRDLDSEHVSKIVRLSGIIISTSVLSSRATYLSIMCRNCRHTTSITINNFNSITGNTVSLPRSCLSTIESESSMANESNIGDESTKKNCGPDPYIIIHESSKFIDQQFLKLQEIPELVPVGEMPRNLTMTCDRYLTNKVIPGTRVTIVGIYSIYNSKNGAGSGRSGGGNGGSGVAIRTPYIKILGIQSDVETSSIWNSVTMFTEEEEEEFLQLSRNPKLYEILTNSIAPSIFGNEDIKKAIVCLLMGGSKKILPDGMRLRGDINVLLLGDPGTAKSQLLKFVEKVSPIAVYTSGKGSSAAGLTASVQRDPMTREFYLEGGAMVLADGGVVCIDEFDKMRDEDRVAIHEAMEQQTISIAKAGITTVLNSRTSVLAAANPIYGRYDDLKSPGDNIDFQTTILSRFDMIFIVKDDHNEERDISIANHVINIHTGNANAMQNQQEENGSEISIEKMKRYITYCRLKCAPRLSPQAAEKLSSNFVTIRKQLLINELESTERSSIPITIRQLEAIIRITESLAKLELSPIAQERHVDEAIRLFQASTMDAA
notes: Mcm5, S. cerevisiae, deletion of residues 693-775 (C5); also called mcm5ΔC5; mcm5 (Δ693-775); source: S. cerevisiae, galactose-induced, purified as a subunit of MCM2-7-ΔC5 (anti-HA beads, HA peptide, gel filtration)
As for B4, the binding result in experiment [3] is given as “binds”.
